Patent US20260008815A1, “CYCLIC PEPTIDE OR SALT THEREOF, AND USES THEREOF” (FUJIFILM Corporation, priority 2023, published 2026)
Bridge positions count the residues as written; N and C are the ends. Ends that are not written are not given here. COCH2 = acetyl group that carries the bridge

B1: cyclic peptide SEQ ID NO: 402 (peptide)
peptide: PCEVYNYWYPTQWFFFTQFK(COCH2)K
modifications: thioether 2-20; not fully specified; printed as P-(C)-EVYNYWYPTQWFFFTQF-(K(acetyl))-K
B2: cyclic peptide SEQ ID NO: 404 (peptide)
peptide: DCIRPYDQLQLIYQYLYQLK(COCH2)K
modifications: thioether 2-20; not fully specified; printed as D-(C)-IRPYDQLQLIYQYLYQL-(K(acetyl))-K

Molecular target: T1, Recombinant Human FGFR2 alpha (IIIc) Fc Chimera Protein, CF (R&D systems, 712-FR-050) (human, UniProt P21802 22-377)
T1 construct: bought; not shown: Fc part of the chimera
Experiment: ELISA on plate-bound FGFR2-Fc
How it was run: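 Plate-immobilized FGFR2 alpha (IIIc)-Fc (5 ng/well) incubated with peptide 3 h at room temperature, then anti-Myc antibody 2 h and chemiluminescent ELISA substrate. Signal corrected by subtracting FGFR-free wells; binding affinity scored into categories from the dose-response.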

T1 sequence (P21802 22-377, change not shown): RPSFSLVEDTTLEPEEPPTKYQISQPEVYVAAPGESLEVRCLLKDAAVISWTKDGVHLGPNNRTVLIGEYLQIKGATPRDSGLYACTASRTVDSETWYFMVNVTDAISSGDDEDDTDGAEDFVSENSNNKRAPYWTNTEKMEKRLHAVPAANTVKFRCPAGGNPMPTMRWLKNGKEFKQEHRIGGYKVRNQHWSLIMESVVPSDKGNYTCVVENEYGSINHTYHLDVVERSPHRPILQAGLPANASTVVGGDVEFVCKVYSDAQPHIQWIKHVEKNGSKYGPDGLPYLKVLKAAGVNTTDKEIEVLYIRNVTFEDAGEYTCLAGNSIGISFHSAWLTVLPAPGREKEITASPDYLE

ELISA luminescence signal at 10 nmol/L peptide, relative to SEQ ID NO: 47 (=1)	Binder
0.1 to 0.5 ratio	NCQLYYTYLYLHTLK(COCH2)F (thioether 2-15) [cyclic peptide SEQ ID NO: 379]
≥ 0.7 ratio	PCEQQNFHSVIQWHFFAQYK(COCH2)N (thioether 2-20 (inferred)) [cyclic peptide SEQ ID NO: 406]
0.5 to 0.7 ratio	KCAPQNFINPVQWRYFQHYKN (thioether ring (C)-(K(acetyl))) [cyclic peptide SEQ ID NO: 70]
0.1 to 0.5 ratio	QCLIQDLYAYIFK(COCH2)L (thioether 2-13) [cyclic peptide SEQ ID NO: 368]
0.1 to 0.5 ratio	QCIQDLYLYLYFLK(COCH2)T (thioether 2-14) [cyclic peptide SEQ ID NO: 376]
0.5 to 0.7 ratio	QCAYYHLYQYLHQLK(COCH2)V (thioether 2-15) [cyclic peptide SEQ ID NO: 385]
≥ 0.7 ratio	VCQQDNYFYPQQWFFFVHYK(COCH2)H (thioether 2-20) [cyclic peptide SEQ ID NO: 400]
0.1 to 0.5 ratio	YCPPQLVYLYQYLYK(COCH2)L (thioether 2-15) [cyclic peptide SEQ ID NO: 380]
0.1 to 0.5 ratio	QCYNYQYIYQYIYK(COCH2)I (thioether 2-14) [cyclic peptide SEQ ID NO: 373]
0.1 to 0.5 ratio	QCPRQLYYLYLYLSK(COCH2)I (thioether 2-15) [cyclic peptide SEQ ID NO: 378]
0.1 to 0.5 ratio	DCQQYYLYLYLWK(COCH2)I (thioether 2-13) [cyclic peptide SEQ ID NO: 366]
0.1 to 0.5 ratio	QCLQDLYRYLYLLK(COCH2)A (thioether 2-14) [cyclic peptide SEQ ID NO: 374]
0.1 to 0.5 ratio	VCQEYYLYQYVYELK(COCH2)Y (thioether 2-15) [cyclic peptide SEQ ID NO: 381]
0.1 to 0.5 ratio	QCQLYYLYQYAYALK(COCH2)V (thioether 2-15) [cyclic peptide SEQ ID NO: 383]
≥ 0.7 ratio	B1
0.1 to 0.5 ratio	HCQLEYLYTYVLK(COCH2)I (thioether 2-13) [cyclic peptide SEQ ID NO: 367]
0.1 to 0.5 ratio	DCLQFLYLYLYQK(COCH2)T (thioether 2-13) [cyclic peptide SEQ ID NO: 369]
0.1 to 0.5 ratio	QCLQYLYQYLFK(COCH2)I (thioether 2-12) [cyclic peptide SEQ ID NO: 364]

ELISA luminescence signal at 10 nmol/L peptide, relative to SEQ ID NO: 47 (=1)	Binder
0.1 to 0.5 ratio	DCLQFIYQYLYTVK(COCH2)I (thioether 2-14) [cyclic peptide SEQ ID NO: 375]
0.1 to 0.5 ratio	KCPQNFINPVQWRYFQHYAKN (thioether ring (C)-(K(acetyl))) [cyclic peptide SEQ ID NO: 69]
0.1 to 0.5 ratio	QCLTQRVYLRQLAYYRLYRK(COCH2)I (thioether 2-20 (inferred)) [cyclic peptide SEQ ID NO: 405]
0.5 to 0.7 ratio	ACRRANWIHPIQWFFFHVYK(COCH2)H (thioether 2-20) [cyclic peptide SEQ ID NO: 403]
0.1 to 0.5 ratio	RCHHNFHHARQHGFFYHYK(COCH2)R (thioether 2-19) [cyclic peptide SEQ ID NO: 388]
0.1 to 0.5 ratio	RCHHNFHHARQHRFFHHYK(COCH2)R (thioether 2-19) [cyclic peptide SEQ ID NO: 387]
0.5 to 0.7 ratio	RCHHNFHHARQWGFFHHYK(COCH2)R (thioether 2-19) [cyclic peptide SEQ ID NO: 386]
0.1 to 0.5 ratio	RCHHNFHHARQHGFFWHYK(COCH2)R (thioether 2-19) [cyclic peptide SEQ ID NO: 389]
0.1 to 0.5 ratio	PCDRQLYYLYQYIHK(COCH2)T (thioether 2-15) [cyclic peptide SEQ ID NO: 382]
0.1 to 0.5 ratio	QCQFLNYVNHVQWHYFWVFK(COCH2)S (thioether 2-20) [cyclic peptide SEQ ID NO: 401]
0.1 to 0.5 ratio	QCQLYYLYQYTIAIK(COCH2)T (thioether 2-15) [cyclic peptide SEQ ID NO: 384]
0.1 to 0.5 ratio	DCQLYYLYQYVLTK(COCH2)V (thioether 2-14) [cyclic peptide SEQ ID NO: 370]
≥ 0.7 ratio	KCQNFINPVQWRYFQHYKN (not fully specified; thioether ring (C)-(K(acetyl))) [cyclic peptide SEQ ID NO: 68]
0.1 to 0.5 ratio	DCQLWYLYQYLIVK(COCH2)A (thioether 2-14) [cyclic peptide SEQ ID NO: 371]
0.1 to 0.5 ratio	LCYLYQYLYQAK(COCH2)F (thioether 2-12) [cyclic peptide SEQ ID NO: 365]
0.1 to 0.5 ratio	QCEQLKYLYQYVLKL (not fully specified; thioether ring (C)-(K(acetyl))) [cyclic peptide SEQ ID NO: 372]
0.1 to 0.5 ratio	B2
0.1 to 0.5 ratio	HCLHYLYQYLYTVK(COCH2)Y (thioether 2-14) [cyclic peptide SEQ ID NO: 377]
